Laboratory results as given in patent US20210070872A1 (AGENUS, published 2021).

T1: biotinylated GITR (human, UniProt Q9Y5U5 26-161, limits assumed, biotinylated (sites not given))
T1 construct: also called GITR-bio; Biotin-GITR
T1 sequence: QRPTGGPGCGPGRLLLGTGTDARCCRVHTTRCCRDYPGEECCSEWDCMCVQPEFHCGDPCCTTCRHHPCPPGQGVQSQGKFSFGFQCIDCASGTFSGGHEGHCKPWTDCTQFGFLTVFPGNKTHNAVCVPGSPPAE


Molecular target: T1, biotinylated GITR
Test: BLI (Octet), biotin-GITR on streptavidin tips, antibody supernatant
Description: Several hundred germlined antibodies were selected based on binding kinetics as determined by Octet measurements (Octet RED 96 system; ForteBio™ Inc., Menlo Park, Calif.). The experimental procedure was configured according to the instruction manual of the instrument. Biotin-GITR was bound to Streptavidin biosensor (SA) and PBS (pH 7.4) was used as a blank control. Briefly, the interaction analyses were conducted at 30° C. in running buffer (PBS, 0.05% Tween, pH7.4). Sensor tips were pre-wet for 10 minutes in running buffer immediately prior to use, and the micro plates used in the Octet were filled with 200 μl of sample or buffer per well and agitated at 800 rpm. For the experiments, commercially available precoated SA tips were used. Biotinylated GITR was loaded onto the ForteBio SA fibers in PBS pH7.4 for 10 minutes and washed for 4 minutes. For the association phase, the ligand-coated SA tips were immersed for 5 minutes in cell culture supernatant that was diluted 1:10 in running buffer prior to the measurement. Dissociation of the antibody-antigen complex was measured in wells containing the Octet buffer alone for 5 minutes. After each run, the tips were regenerated with Glycine (10 mM, pH 2.0). Affinity, Kₒₙ and Koff were determined with Octet evaluation software v6.3 using a 1:1 binding model with local full fitting.

Row | Binder | Kd | koff | kon
1 | germline variant antibody 10 (H1916A11 / K1916A11) (antibody, V domains shown, IGHG1/IGKC expression vectors; measured from CHO culture supernatant; also called Antibody ID 10) VH: QVQLVQSGAEVKKPGASVKVSCKASGYTFTEYAMYWVRQAPGQGLEWMGLIRTYSGGVSYNQKFRGRVTMTVDKSISTAYMELSRLRSDDTAVYYCAKSGTVRGFAYWGQGTLVTVSS VL: DIVMTQSPDSLAVSLGERATINCKSSQSLLNSSNQKNYLSWYQQKPGQPPKLLIYWASTRESGVPDRFSGSGSGTDFTLTISSVQAEDVAVYHCQNDYSYPYTFGQGTKLEIK | 0.911 nM | 0.00056 s⁻¹ | 615000 M⁻¹ s⁻¹
2 | germline variant antibody 4 (H1916A05 / K1916A05) (antibody, V domains shown, IGHG1/IGKC expression vectors; measured from CHO culture supernatant; also called Antibody ID 4) VH: QVQLVQSGAEVKKPGASVKVSCKASGYTFTEYAMYWVRQAPGQSLEWMGLIRTFSGDVSYNQKFQDRVTMTVDKSISTAYMELSRLRSDDTAVYYCAKSGTVRGFAYWGQGTLVTVSS VL: DIVMTQSPDSLAVSLGERATINCKSSQSLLNSSNQKNYLSWYHQKPGQPPKLLIYWASTRESGVPDRFTGSGSGTDFTLTISSVQAEDVAVYYCQNDYSYPYTFGQGTKLEIK | 1.43 nM | 0.000501 s⁻¹ | 351000 M⁻¹ s⁻¹
3 | germline variant antibody 36 (H1916D06 / K1916D06) (antibody, V domains shown, IGHG1/IGKC expression vectors; measured from CHO culture supernatant; also called Antibody ID 36) VH: QVQLVQSGAEVKKPGASVKVSCKGSGYTFTDYAMYWVRQAPGQGMEWIGVIRTFSGGVSYNQKFRDRVTMTVDKSISTAYMELSRLRSDDTAVYYCAKSGTVRGFAYWGQGTLVTVSS VL: DIVMTQSPDSLAVSLGERATINCKSSQSLLNSSNQKNYLTWYHQKPGQPPKMLIYWASTRESGVPDRFSGSGSGTDFTLTISSVQEEDVAVYHCQNDYSFPYTFGQGTKLEIK | 0.44 nM | 0.00028 s⁻¹ | 638000 M⁻¹ s⁻¹
4 | germline variant antibody 38 (H1916D08 / K1916D08) (antibody, V domains shown, IGHG1/IGKC expression vectors; measured from CHO culture supernatant; also called Antibody ID 38) VH: QVQLVQSGTEVKKPGASVKVSCKGSGYTFTGYAMYWVRQAPGQGLEWIGVIKTYSGGVTYNQKFRGRVTMTVDKSISTAYMELSRLRSDDTAVYYCAKSGTVRGFAYWGQGTLVTVSS VL: DIVMTQSPDSLAVSLGERATINCKSSQSLLNSGNQKNYLTWYQQKPGQPPKLLIYWASTRESGVPDRFSGSGSGTDFTLTISSLQAEDVAVYYCQNDYSYPYTFGQGTKLEIK | 0.0875 nM | 0.00075 s⁻¹ | 8.57e+06 M⁻¹ s⁻¹
5 | germline variant antibody 29 (H1916C11 / K1916C11) (antibody, V domains shown, IGHG1/IGKC expression vectors; measured from CHO culture supernatant; also called Antibody ID 29) VH: QVQLVQSGAEVKKPGASVKVSCKGSGYTFTDYAMYWVRQAPGQGLEWIGVIRTFSGGVTYNQKFKGRATMTVDTSISTAYMELSRLRSDDTAVYYCAKSGTVRGFAYWGQGTLVTVSS VL: DIVMTQSPDSLAVSLGERATINCKSSQSLLNSSNQKNYLSWYQQKPGQPPKLLIYWASTRESGVPDRFSGSGSGTDFTLTISSLQAEDVAVYHCQNDYSYPYTFGQGTKLEIK | 1.06 nM | 0.000313 s⁻¹ | 295000 M⁻¹ s⁻¹
6 | germline variant antibody 15 (H1916B05 / K1916B05) (antibody, V domains shown, IGHG1/IGKC expression vectors; measured from CHO culture supernatant; also called Antibody ID 15) VH: QVQLVQSGAEVKKPGASVKVSCKGSGYTFTDYAMYWVRQAPGQGLEWIGVIRTFSGDVSYNQKFRERATMTVDKSISTAYMELSRLRSDDTAVYYCAKSGTVRGFAYWGQGTLVTVSS VL: DIVMTQSPDSLAVSLGERATINCKSSQSLLNSGNQKNYLSWYQQKPGQPPKLLIYWASTRESGVPDRFTGSGSGTDFTLTISSLQAEDVAVYHCQNDYSYPYTFGQGTKLEIK | 2.22 nM | 0.000616 s⁻¹ | 278000 M⁻¹ s⁻¹
7 | germline variant antibody 6 (H1916A07 / K1916A07) (antibody, V domains shown, IGHG1/IGKC expression vectors; measured from CHO culture supernatant; also called Antibody ID 6) VH: QVQLVQSGAEVKKPGASVKVSCKGSGYTFTEYAMYWVRQAPGQGLEWMGLIRTFSGGVSYNQKFKGRATMTVDTSISTAYMELSRLRSDDTAVYYCAKSGTVRGFAYWGQGTLVTVSS VL: DIVMTQSPDSLAVSLGERATINCKSSQSLLNSGNQKNYLSWYQQKPGQPPKMLIYWASTRESGVPDRFTGSGSGTDFTLTISSLQAEDVAVYHCQNDYSYPYTFGQGTKLEIK | 2.7 nM | 0.000579 s⁻¹ | 214000 M⁻¹ s⁻¹
8 | germline variant antibody 33 (H1916D03 / K1916D03) (antibody, V domains shown, IGHG1/IGKC expression vectors; measured from CHO culture supernatant; also called Antibody ID 33) VH: QVQLVQSGAEVKKPGASVKVSCKASGYTFTGYAMYWVRQAPGQGMEWIGLIRTYSGGVTYNQKFQGRVTMTVDTSISTAYMELSRLRSDDTAVYYCAKSGTVRGFAYWGQGTLVTVSS VL: DIVMTQSPDSLAVSLGERATINCKSSQSLLNSGNQKNYLSWYHQKPGQPPKLLIYWASTRESGVPDRFSGSGSGTDFTLTISSVQAEDVAVYHCQNEYSYPYTFGQGTKLEIK | 0.0901 nM | 0.00101 s⁻¹ | 1.12e+07 M⁻¹ s⁻¹
9 | germline variant antibody 31 (H1916D01 / K1916D01) (antibody, V domains shown, IGHG1/IGKC expression vectors; measured from CHO culture supernatant; also called Antibody ID 31) VH: QVQLVQSGTEVKKPGASVKVSCKGSGYTFTEYAMYWVRQAPGQGLEWMGLIRTFSGGLTYNQKFKDRVTMTVDKSISTAYMELSRLRSDDTAVYYCAKSGTVRGFAYWGQGIPVTVSS VL: DIVMTQSPDSLAVSLGERATINCKSSQSLLNSSNQKNYLTWYQQKPGQPPKLLIYWASTRESGVPDRFTGSGSGTDFTLTISSLQAEDVAVYHCQNDYSYPYTFGQGTKLEIK | 0.418 nM | 0.000211 s⁻¹ | 505000 M⁻¹ s⁻¹
10 | germline variant antibody 25 (H1916C07 / K1916C07) (antibody, V domains shown, IGHG1/IGKC expression vectors; measured from CHO culture supernatant; also called Antibody ID 25) VH: QVQLVQSGAEVKKPGASVKVSCKASGYTFTEYAMYWVRQAPGQGLEWMGLIRTFSGGVSYNQKFRGRATMTVDTSISTAYMELSRLRSDDTAVYYCAKSGTVRGFAYWGQGTLVTVSS VL: DIVMTQSPDSLAVSLGERATINCKSSQSLLNSGNQKNYLTWYQQKPGQPPKMLIYWASTRESGVPDRFTGSGSGTDFTLTISSVQAEDVAVYYCQNDYSFPYTFGQGTKLEIK | 1.69 nM | 0.000632 s⁻¹ | 374000 M⁻¹ s⁻¹
11 | germline variant antibody 11 (H1916Al2 / K1916A12) (antibody, V domains shown, IGHG1/IGKC expression vectors; measured from CHO culture supernatant; also called Antibody ID 11) VH: QVQLVQSGAEVKKPGASVKVSCKGSGYTFTDYAMHWVRQAPGQGLEWMGLIRTYSGGVSYNQKFRGRVTMTVDTSISTAYMELSRLRSDDTAVYYCAKSGTVRGFAYWGQGTLVTVSS VL: DIVMTQSPDSLAVSLGERATINCKSSQSLLNSSNQKNYLSWYQQKPGQPPKLLIYWASTRESGVPDRFSGSGSGTDFTLTISSVQAEDVAVYHCQNDYSFPYTFGQGTKLEIK | 2.1 nM | 0.000847 s⁻¹ | 403000 M⁻¹ s⁻¹
12 | germline variant antibody 2 (H1916A03 / K1916A03) (antibody, V domains shown, IGHG1/IGKC expression vectors; measured from CHO culture supernatant; also called Antibody ID 2) VH: QVQLVQSGAEVKKPGASVKVSCKASGYTFTEYAMHWVRQAPGQGMEWIGLIRTYSGGVSYNQKFRGRATMTVDKSISTAYMELSRLRSDDTAVYYCAKSGTVRGFAYWGQGTLVTVSS VL: DIVMTQSPDSLAVSLGERATINCKSSQSLLNSGNQKNYLSWYHQKPGQPPKLLIYWASTRESGVPDRFSGSGSGTDFTLTISSVQAEDVAVYYCQNEYSFPYTFGQGTKLEIK | 4.23 nM | 0.00234 s⁻¹ | 553000 M⁻¹ s⁻¹
13 | germline variant antibody 34 (H1916D04 / K1916D04) (antibody, V domains shown, IGHG1/IGKC expression vectors; measured from CHO culture supernatant; also called Antibody ID 34) VH: QVQLVQSGAEVKKPGASVKVSCKASGYTFTDYAMYWVRQAPGQGMEWIGVIRTFSGGVTYNQKFRGRVTMTVDTSISTAYMELSRLRSDDTAVYYCAKSGTVRGFAYWGQGTLVTVSS VL: DIVMTQSTDSLAVSLGERATINCKSSQSLLNSSNQKNYLTWYQQKPGQPPKLLIYWASTRESGVPDRFTGSGSGTDFTLTISSLQAEDVAVYHCQNDYSYPYTFGQGTKLEIK | 0.458 nM | 0.000255 s⁻¹ | 557000 M⁻¹ s⁻¹
14 | germline variant antibody 16 (H1916B06 / K1916B06) (antibody, V domains shown, IGHG1/IGKC expression vectors; measured from CHO culture supernatant; also called Antibody ID 16) VH: QVQLVQSGTEVKKPGASVKVSCKASGYTFTGYAMYWVRQAPGQGLEWIGLIRTFSGGVTYNQKFRERVTMTVDKSISTAYMELSRLRSDDTAVYYCAKSGTVRGFAYWGQGTLVTVSS VL: DIVMTQSPDSLAVSLGERATINCKSSQSLLNSGNQKNYLTWYHQKPGQPPKLLIYWASTRESGVPDRFTGSGSGTDFTLTISSVQAEDVAVYHCQNDYSYPYTFGQGTKLEIK | 1.47 nM | 0.000523 s⁻¹ | 356000 M⁻¹ s⁻¹
15 | germline variant antibody 9 (H1916A10 / K1916A10) (antibody, V domains shown, IGHG1/IGKC expression vectors; measured from CHO culture supernatant; also called Antibody ID 9) VH: QVQLVQSGAEVKKPGASVKVSCKASGYTFTGYAMYWVRQAPGQGLEWMGLIRTYSGEVSYNQKFRGRATMTVDKSISTAYMELSRLRSDDTAVYYCAKSGTVRGFAYWGQGTLVTVSS VL: DIVMTQSPDSLAVSLGERATINCKSSQSLLNSGNQKNYLTWYQQKPGQPPKMLIYWASTRESGVPDRFSGSGSGTDFTLTISSLQAEDVAVYHCQNDYSFPYTFGQGTKLEIK | 2.68 nM | 0.000784 s⁻¹ | 293000 M⁻¹ s⁻¹
16 | germline variant antibody 1 (H1916A01 / K1916A01) (antibody, V domains shown, IGHG1/IGKC expression vectors; measured from CHO culture supernatant; also called Antibody ID 1) VH: QVQLVQSGTEVKKPGASVKVSCKGSGYTFTEYAMYWVRQAPGQGLEWIGVIRTYSGGVTYNQKFQGRATMTVDTSISTAYMELSRLRSDDTAVYYCAKSGTVRGFAYWGQGTLVTVSS VL: DIVMTQSPDSLAVSLGERATINCKSSQSLLNSGNQKNYLTWYHQKPGQPPKMLIYWASTRESGVPDRFSGSGSGTDFTLTISSVQAEDVAVYHCQNDYSYPYTFGQGTKLEIK | 0.744 nM | 0.000348 s⁻¹ | 468000 M⁻¹ s⁻¹
